For nine substances, KD (TNF-alpha), normalized to TNFR-h(1)Fc wt (fold of wt (normalized)) and IC50 (WEHI Assay), normalized to TNFR-h(1)Fc wt (fold of wt (normalized)) results are on record in patent US20130084291A1.

In test [1] the target is TNF-alpha. Description: Biacore 3000 SPR; Fc fusion loaded into the flow cell, exposed to TNF.
In test [2] the target is TNF-alpha. Nature of the test: cell-based or functional assay.

On to D47N S202N TNFR2-h(1)Fc (Fc fusion), for which, in the test with TNF-alpha [1], the KD (TNF-alpha), normalized to TNFR-h(1)Fc wt (fold of wt (normalized)) was 4.4. Besides, the IC50 (WEHI Assay), normalized to TNFR-h(1)Fc wt (fold of wt (normalized)) in the test with TNF-alpha [2] stood at 1.1.
Take D47N TNFR2-h(1)Fc (Fc fusion): the KD (TNF-alpha), normalized to TNFR-h(1)Fc wt (fold of wt (normalized)) with TNF-alpha [1] was 1.6. Further, the IC50 (WEHI Assay), normalized to TNFR-h(1)Fc wt (fold of wt (normalized)) with TNF-alpha [2] worked out at 1.9.
In the case of D47N/E155N TNFR2-h(1)Fc (Fc fusion), the KD (TNF-alpha), normalized to TNFR-h(1)Fc wt (fold of wt (normalized)) with TNF-alpha [1] came out at 2.6. For the same substance, the IC50 (WEHI Assay), normalized to TNFR-h(1)Fc wt (fold of wt (normalized)) with TNF-alpha [2] came out at 1.6.
In the same order, the values of D47N/G253N TNFR2-h(1)Fc (Fc fusion) are 55 and 3.
In the same order, the values of E155N G253N TNFR2-h(1)Fc (Fc fusion) are 3.6 and 0.57.
For the substance “E155N S202N G253N TNFR2-h(1)Fc (Fc fusion)”, in the test with TNF-alpha [1], the KD (TNF-alpha), normalized to TNFR-h(1)Fc wt (fold of wt (normalized)) turned out to be 1. Besides, the IC50 (WEHI Assay), normalized to TNFR-h(1)Fc wt (fold of wt (normalized)) with TNF-alpha [2] stood at 0.25.
For the substance S202N G253N TNFR2-h(1)Fc (Fc fusion), the KD (TNF-alpha), normalized to TNFR-h(1)Fc wt (fold of wt (normalized)) with TNF-alpha [1] worked out at 1.05. Further, the IC50 (WEHI Assay), normalized to TNFR-h(1)Fc wt (fold of wt (normalized)) in the test with TNF-alpha [2] worked out at 0.23.
Turning to T203N P205S TNFR2-h(1)Fc (Fc fusion), the KD (TNF-alpha), normalized to TNFR-h(1)Fc wt (fold of wt (normalized)) in the test with TNF-alpha [1] stood at 0.33. In the test with TNF-alpha [2], the IC50 (WEHI Assay), normalized to TNFR-h(1)Fc wt (fold of wt (normalized)) amounted to 0.29.
As to T222N TNFR2-h(1)Fc (Fc fusion), the KD (TNF-alpha), normalized to TNFR-h(1)Fc wt (fold of wt (normalized)) in the test with TNF-alpha [1] was determined as 0.78. The IC50 (WEHI Assay), normalized to TNFR-h(1)Fc wt (fold of wt (normalized)) in the test with TNF-alpha [2] is 0.25.
